From the supplement of paper PMC10065799, “High-throughput profiling of sequence recognition by tyrosine kinases and SH2 domains using bacterial peptide display” (eLife, 2023)

Key:
c-Src SH2 = experiment: SH2 binding enrichment of the phosphorylated peptide, bacterial display (enrichment ratio); higher = better substrate or ligand; peptides without Tyr show the background
SHP2-C SH2 = experiment: as above
Grb2 SH2 = Grb2 SH2 (UniProt P62993); experiment: as above
FGFR1 = FGFR1 (UniProt P11362); experiment: phosphorylation enrichment, bacterial display (enrichment ratio); higher = better substrate or ligand; peptides without Tyr show the background
Jak2 = Jak2 (UniProt O60674); experiment: as above
EPHB2 = EPHB2 (UniProt P29323); experiment: as above
c-Abl (mouse) = experiment: as above
MERTK = MERTK (UniProt Q12866); experiment: as above
FGFR3 = FGFR3 (UniProt P22607); experiment: as above
AncSZ = experiment: as above
Hck = Hck (UniProt P08631); experiment: as above
Fes = Fes (UniProt P07332); experiment: as above
EPHB1 = EPHB1 (UniProt P54762); experiment: as above
Fyn = Fyn (UniProt P06241); experiment: as above
c-Src = experiment: as above
Fer (mouse) = experiment: as above
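For SH2 binding enrichment of the phosphorylated peptide, bacterial display in this document: peptide library displayed on the E. coli surface as eCPX fusions, selected cells deep-sequenced, score is each peptide's frequency after selection divided by its frequency in the input.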
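For phosphorylation enrichment, bacterial display in this document: 11-residue human phosphosite peptides and single-mutation variants displayed on the E. coli surface, counted by deep sequencing, each peptide's frequency after selection divided by its frequency in the unselected input library; frequency after pTyr selection over input frequency; kinase dosed for 20-30% of maximal phosphorylation in three min.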

FGFR1, sequence (P11362 whole entry, looked up): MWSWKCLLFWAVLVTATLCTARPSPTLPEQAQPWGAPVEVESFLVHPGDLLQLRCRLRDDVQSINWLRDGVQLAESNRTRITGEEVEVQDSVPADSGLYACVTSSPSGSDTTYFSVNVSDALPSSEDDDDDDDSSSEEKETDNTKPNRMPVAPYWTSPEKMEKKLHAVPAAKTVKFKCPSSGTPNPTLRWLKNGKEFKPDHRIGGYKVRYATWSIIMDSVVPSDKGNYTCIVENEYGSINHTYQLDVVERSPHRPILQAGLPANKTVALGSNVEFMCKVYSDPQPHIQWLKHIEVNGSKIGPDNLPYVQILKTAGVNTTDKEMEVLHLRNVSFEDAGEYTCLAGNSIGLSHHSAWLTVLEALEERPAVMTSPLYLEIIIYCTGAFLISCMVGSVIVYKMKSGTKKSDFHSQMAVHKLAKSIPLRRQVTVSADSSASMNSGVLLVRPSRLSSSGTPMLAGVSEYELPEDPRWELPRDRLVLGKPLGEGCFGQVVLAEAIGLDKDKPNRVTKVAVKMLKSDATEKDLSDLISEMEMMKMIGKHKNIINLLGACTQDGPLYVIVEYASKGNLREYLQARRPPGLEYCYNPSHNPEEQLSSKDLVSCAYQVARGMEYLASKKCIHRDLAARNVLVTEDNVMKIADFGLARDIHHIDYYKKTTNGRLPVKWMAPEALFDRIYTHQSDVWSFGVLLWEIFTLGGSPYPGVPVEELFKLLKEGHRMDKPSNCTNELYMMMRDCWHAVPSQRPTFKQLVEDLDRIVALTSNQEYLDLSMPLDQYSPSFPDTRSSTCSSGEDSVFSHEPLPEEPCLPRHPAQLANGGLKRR
EPHB1, sequence (P54762 whole entry, looked up): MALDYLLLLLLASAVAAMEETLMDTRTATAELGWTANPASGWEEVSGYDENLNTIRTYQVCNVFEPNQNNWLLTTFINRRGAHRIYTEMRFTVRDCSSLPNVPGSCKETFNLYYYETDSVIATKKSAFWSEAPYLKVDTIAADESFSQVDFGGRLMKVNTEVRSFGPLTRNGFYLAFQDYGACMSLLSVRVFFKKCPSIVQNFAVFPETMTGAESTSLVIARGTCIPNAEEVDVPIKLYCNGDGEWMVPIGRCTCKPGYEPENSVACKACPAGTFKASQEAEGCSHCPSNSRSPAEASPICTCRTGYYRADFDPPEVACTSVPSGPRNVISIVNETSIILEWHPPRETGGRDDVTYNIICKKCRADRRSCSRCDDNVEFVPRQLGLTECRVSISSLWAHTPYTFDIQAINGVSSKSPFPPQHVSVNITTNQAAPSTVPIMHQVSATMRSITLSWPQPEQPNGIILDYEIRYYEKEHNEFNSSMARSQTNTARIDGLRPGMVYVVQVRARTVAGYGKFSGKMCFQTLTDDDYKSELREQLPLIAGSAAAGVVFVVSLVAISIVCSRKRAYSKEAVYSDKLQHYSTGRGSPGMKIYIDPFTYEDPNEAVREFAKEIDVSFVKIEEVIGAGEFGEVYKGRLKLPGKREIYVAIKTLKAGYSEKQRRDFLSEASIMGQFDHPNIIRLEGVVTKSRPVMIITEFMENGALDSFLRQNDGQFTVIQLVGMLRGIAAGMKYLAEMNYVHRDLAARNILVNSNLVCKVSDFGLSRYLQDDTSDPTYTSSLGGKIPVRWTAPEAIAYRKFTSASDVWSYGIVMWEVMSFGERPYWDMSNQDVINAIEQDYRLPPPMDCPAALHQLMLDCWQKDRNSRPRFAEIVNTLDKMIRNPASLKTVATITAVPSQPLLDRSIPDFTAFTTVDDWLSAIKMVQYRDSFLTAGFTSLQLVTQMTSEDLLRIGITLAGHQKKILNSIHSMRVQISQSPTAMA
Fyn, sequence (P06241 whole entry, looked up): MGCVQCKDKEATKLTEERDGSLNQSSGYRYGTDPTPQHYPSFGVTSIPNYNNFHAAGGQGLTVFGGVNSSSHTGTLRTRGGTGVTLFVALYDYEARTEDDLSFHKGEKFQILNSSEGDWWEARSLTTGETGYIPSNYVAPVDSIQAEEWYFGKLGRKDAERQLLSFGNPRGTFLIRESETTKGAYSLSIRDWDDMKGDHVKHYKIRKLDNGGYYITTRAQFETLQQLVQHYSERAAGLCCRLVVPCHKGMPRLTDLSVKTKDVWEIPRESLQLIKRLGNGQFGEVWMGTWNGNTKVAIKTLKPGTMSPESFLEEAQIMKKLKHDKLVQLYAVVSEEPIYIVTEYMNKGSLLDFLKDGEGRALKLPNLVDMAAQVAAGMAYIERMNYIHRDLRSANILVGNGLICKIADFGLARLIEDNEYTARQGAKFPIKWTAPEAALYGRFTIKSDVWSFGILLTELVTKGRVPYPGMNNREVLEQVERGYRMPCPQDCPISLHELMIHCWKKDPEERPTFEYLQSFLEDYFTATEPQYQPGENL
MERTK, sequence (Q12866 whole entry, looked up): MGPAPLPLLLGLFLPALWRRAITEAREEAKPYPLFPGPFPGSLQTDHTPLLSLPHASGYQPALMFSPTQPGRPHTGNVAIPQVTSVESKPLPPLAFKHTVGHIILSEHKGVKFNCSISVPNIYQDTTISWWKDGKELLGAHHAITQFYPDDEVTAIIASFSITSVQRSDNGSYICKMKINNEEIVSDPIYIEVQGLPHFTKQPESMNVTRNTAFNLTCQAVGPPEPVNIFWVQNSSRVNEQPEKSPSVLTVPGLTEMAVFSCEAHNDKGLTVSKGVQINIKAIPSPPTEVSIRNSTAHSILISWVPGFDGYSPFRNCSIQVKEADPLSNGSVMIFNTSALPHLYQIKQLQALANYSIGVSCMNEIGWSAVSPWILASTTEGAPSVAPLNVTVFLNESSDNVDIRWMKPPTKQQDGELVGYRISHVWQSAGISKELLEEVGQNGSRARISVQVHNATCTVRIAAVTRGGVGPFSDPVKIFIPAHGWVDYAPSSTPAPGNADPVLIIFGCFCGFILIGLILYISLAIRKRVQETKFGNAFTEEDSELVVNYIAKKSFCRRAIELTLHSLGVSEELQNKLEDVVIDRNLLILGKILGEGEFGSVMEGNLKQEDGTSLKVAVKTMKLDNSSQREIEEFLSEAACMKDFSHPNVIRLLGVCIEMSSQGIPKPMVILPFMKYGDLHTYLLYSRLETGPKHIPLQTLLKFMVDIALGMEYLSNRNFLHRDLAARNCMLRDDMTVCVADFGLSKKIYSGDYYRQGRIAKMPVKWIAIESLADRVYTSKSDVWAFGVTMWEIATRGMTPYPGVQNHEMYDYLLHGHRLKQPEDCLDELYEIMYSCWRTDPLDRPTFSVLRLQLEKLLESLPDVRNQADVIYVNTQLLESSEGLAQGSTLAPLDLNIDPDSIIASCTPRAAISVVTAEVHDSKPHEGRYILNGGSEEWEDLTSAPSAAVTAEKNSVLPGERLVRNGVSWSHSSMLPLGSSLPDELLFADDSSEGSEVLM
FGFR3, sequence (P22607 whole entry, looked up): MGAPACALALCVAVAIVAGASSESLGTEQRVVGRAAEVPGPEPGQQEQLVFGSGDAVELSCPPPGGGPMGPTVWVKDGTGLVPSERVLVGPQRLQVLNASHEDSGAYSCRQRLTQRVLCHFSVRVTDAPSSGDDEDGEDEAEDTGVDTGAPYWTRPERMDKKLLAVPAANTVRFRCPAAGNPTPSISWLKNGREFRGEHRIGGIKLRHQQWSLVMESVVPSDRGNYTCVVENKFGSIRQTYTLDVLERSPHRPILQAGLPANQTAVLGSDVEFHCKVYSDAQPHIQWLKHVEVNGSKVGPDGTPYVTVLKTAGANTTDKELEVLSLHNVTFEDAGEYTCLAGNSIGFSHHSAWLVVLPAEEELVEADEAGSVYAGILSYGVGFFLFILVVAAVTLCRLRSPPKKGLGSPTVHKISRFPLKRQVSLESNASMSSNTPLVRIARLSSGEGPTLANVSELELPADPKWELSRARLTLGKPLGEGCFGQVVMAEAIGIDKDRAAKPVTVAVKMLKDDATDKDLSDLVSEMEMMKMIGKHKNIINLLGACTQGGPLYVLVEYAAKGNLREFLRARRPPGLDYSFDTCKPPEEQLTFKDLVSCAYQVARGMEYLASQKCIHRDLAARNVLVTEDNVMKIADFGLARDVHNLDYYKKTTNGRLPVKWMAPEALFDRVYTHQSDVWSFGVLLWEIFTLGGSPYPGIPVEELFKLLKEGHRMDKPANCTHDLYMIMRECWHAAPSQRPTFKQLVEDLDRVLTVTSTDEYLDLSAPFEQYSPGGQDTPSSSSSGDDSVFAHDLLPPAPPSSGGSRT
Grb2 SH2, sequence (P62993 whole entry, looked up): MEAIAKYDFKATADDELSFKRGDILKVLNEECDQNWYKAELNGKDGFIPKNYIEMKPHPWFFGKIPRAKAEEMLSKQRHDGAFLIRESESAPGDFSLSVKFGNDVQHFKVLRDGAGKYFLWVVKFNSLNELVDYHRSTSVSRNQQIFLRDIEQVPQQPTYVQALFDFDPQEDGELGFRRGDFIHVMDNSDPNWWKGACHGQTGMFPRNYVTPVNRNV
Hck, sequence (P08631 whole entry, looked up): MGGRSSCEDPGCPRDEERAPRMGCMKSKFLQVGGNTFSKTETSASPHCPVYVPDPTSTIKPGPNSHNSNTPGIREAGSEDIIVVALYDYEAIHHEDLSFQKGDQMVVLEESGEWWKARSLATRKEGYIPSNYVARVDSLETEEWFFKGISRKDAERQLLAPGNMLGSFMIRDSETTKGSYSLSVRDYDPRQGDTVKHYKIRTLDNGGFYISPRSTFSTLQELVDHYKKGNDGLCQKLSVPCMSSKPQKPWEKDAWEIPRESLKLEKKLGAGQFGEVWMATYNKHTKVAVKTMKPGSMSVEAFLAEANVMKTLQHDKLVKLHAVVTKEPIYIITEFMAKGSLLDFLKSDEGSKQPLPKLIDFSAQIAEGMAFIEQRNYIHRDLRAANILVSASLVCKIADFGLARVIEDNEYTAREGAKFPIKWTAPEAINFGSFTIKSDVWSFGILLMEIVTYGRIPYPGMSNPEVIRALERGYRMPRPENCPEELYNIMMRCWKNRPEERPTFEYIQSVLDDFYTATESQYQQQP

Sequence	SH2 binding enrichment (c-Src SH2)	SH2 binding enrichment (SHP2-C SH2)	SH2 binding enrichment (Grb2 SH2)	phosphorylation enrichment (FGFR1)	phosphorylation enrichment (Jak2)	phosphorylation enrichment (EPHB2)	phosphorylation enrichment (c-Abl (mouse))	phosphorylation enrichment (MERTK)	phosphorylation enrichment (FGFR3)	phosphorylation enrichment (AncSZ)	phosphorylation enrichment (Hck)	phosphorylation enrichment (Fes)	phosphorylation enrichment (EPHB1)	phosphorylation enrichment (Fyn)	phosphorylation enrichment (c-Src)	phosphorylation enrichment (Fer (mouse))
AKFPSYEKNKK [FOXL2_Y91_F90S]	0.615	0.894	0.907	0.618	1.07	0.396	0.544	0.499	0.475	0.624	0.44	0.7	0.577	0.423	0.562	0.49
AKIDGYIISYR	0.685	1.03	0.961	0.607	0.966	0.657	0.755	0.46	0.684	1.15	0.604	1.39	0.678	0.37	0.568	0.566
AKLVQYFMEHH [PTPN11_Y80_E76K_YF]	0.97	1.62	1.31	0.496	0.63	0.505	0.546	0.362	0.684	0.729	0.441	0.853	0.462	0.374	0.412	0.445
ALARKYHGGGG [HBB_Y146_H144R]	0.536	0.549	0.8	0.353	0.507	0.307	0.407	0.337	0.33	0.372	0.317	0.408	0.418	0.365	0.435	0.444
ALECLYHREKR [TEKT5_Y195]	0.446	0.48	1	0.484	0.884	0.675	0.927	0.406	0.734	1.26	0.583	1.15	0.618	0.512	0.571	0.451
ALEHKYWALGQ [MAP1A_Y1555_Q1553H]	14.8	0.814	0.817	0.601	0.709	0.539	0.652	0.596	0.582	0.859	0.621	0.966	0.546	0.801	1.39	0.492
ALHRPYGCDVE [ABL2_Y80]	0.582	0.72	1.01	0.412	0.541	0.456	0.571	0.357	0.531	0.871	0.379	0.782	0.59	0.447	0.324	0.538
ALIKAYDKAVA [SMN1_Y43]	0.571	0.573	0.773	0.444	0.532	0.626	0.461	0.491	0.526	0.563	0.29	0.578	0.546	0.458	0.353	0.282
ALLTKYSRSSM [DSCC1_Y374_H376R]	0.589	0.615	0.847	0.579	0.816	0.535	0.697	0.552	0.554	0.617	0.384	0.744	0.505	0.465	0.524	0.442
ALMGLYHGQVL [HADHA_Y343]	0.647	0.89	1.15	0.625	0.596	0.649	0.679	0.648	0.641	0.605	1.64	0.823	0.545	0.728	1.28	0.678
ALVFLSFCIIF [SIGLEC12_Y494_Y494S]	0.793	1.39	1.85	0.45	0.871	0.489	0.974	0.449	0.603	1.05	0.466	0.865	0.329	0.496	0.439	0.39
APRKVYDTRDD [ZFPL1_Y215]	0.372	0.648	0.84	0.427	0.614	0.44	0.485	0.372	0.581	0.641	0.493	0.736	0.45	0.408	0.422	0.403
APTSGYREFVH [IL4R_Y575_Q576R]	0.518	0.561	0.882	0.462	0.441	0.342	0.508	0.483	0.474	0.681	0.379	0.561	0.378	0.422	0.397	0.485
AQESNYRLLRQ [SLC20A2_Y377_R382Q]	0.405	1.54	0.891	0.411	0.754	0.534	0.634	0.488	0.445	0.616	0.478	0.737	0.785	0.391	0.397	0.479
TDIVAYSGRVQ [SPTBN2_Y477]	–	–	–	0.214	1.48	2.04	1.13	0.885	1.05	0.857	0.407	0.196	0.369	1.05	1.05	0.264
